In the DeepSol protein solubility set:

Experiment: soluble on expression in E. coli; label from the status in PepcDB or PDB records

Row | Sequence | soluble on expression in E. coli
1 | MAHHHHHHMNIVTSYFLVRKLPGTLAMGGDVLEHQNARQREYMECLRLNQQHPGVASIHLIVEGADAYEHLLKHVLCNPHFQNASTLTTSTAPASARHRRRHAAPIVPVVRFASGMPLYADFFAYANQLLSHRLTMVCNADVYLSPEHFSLSAVEDLFRQSSTLPPPHAAPCGSCQPSTADLAEREAMRPKSAPKRANPLALALTRYESDSPLDAPFLFDYRGSHDAFVLVPPVPPSFVRSVAHPQNCYKAENIVLHELQQSGYLTLNPTLGDGVRLVHRHATDLRQWFPPVDESRYGRAQPNTLAQAASRIREEARVRSLPPSV | not soluble
2 | LMRSPKQKQLEVDHANKTNLKPKAIVNCDLFQLGDYCVFTFKKLSFKQRFKQDFFARSKFSFRS | soluble
3 | MAHHHHHHMALYIIGLGLGDERDVSVRGKELIEMSDVVYLESYTSVLFVSKNALEEFYKKNIKEVDRNFAEENCEEILEEAVNKKVSFLVVGDPLCATTHHDIILRAKKKNINVQVIHNASIMSAIGESGMQLYNFGQTVSIPYFEETYKPTSFYDKIKVNLDNNFHTLCLLDIKVKERTIENLMKNKNIYEPPRYMTINEAIEQLLYCEEVHKKNVITDNTRGIAIVRIGSNSQQIVSGNLLTLKTIKYNDPLHSLIICAPTLHDVEREYFDMYMHK | not soluble
4 | MGAVSAFSWASSGRLHALEVFVMKIPKTYDEIMEHFGGLIDEVTAELLESYAKGETVRVSEALAKSGRVAVEGVVLRVFPVRHFSKNGRSGKVGSVVIQDDCTVRVNFWNEAAEIIEAGDIVEGARIKVRGYARGEEIHVNSLSEVEVFVDFVNISELDEKVGERVNVKGFVSGLGEPEKANEIYISDETGRVKVLLENESLYYAVDIGSYVEIYNALAGEDGIYVDRNSRFSVGE | soluble
5 | MGSDKIHHHHHHMELEEIVDSERNIHKTIEVLGKGGQGIVYRCLDKDVAIKVVLRDGDFIKDKESLKQYEKSVLNLSFKPIESHFPMSIPLVTLKEKQGYVMKMAEGYEPLKTFLKKPSILENEEKDGIFRINNAIQELCKDNHYMTLSLSYYSQTQGLRSRLKILTHLAKLLFRLQSKGLVYGDLNLNNVFYKDNSAFLIDADNVRYESEKALCVIFTPNYGALEISQTSKNSDTTNYNTMLSDTFSFAIITYELLNMVHPFDGNKADDSVENFIELPWIEDRKDDSNRSCGLLPFFLTRDLKNLLA | not soluble
6 | GAATMMRLARAMRPRPDGLPAQADDLRLHRLVLNDVGPRLNVEALQRIAGNVAAQDSYPTFEAAVAAMRQISTTFGPHTDAQWDELARHIYVRQGGGWVRHFDPALAVPLGAQVAQAFEAGERILWQAYDSLDCPVLIVRGQDSDLLSAATAAEMLGRNPRARLHEVPGVGHAPTLMTPEQIEPIARFLQE | not soluble
7 | MGSSHHHHHHSSGRENLYFQGHMTRSAEPRVLQFCHGYDGPFLDCARQYASLFAGTPYKVTTVFLTGRSDPEVAARCASDEVLFLEYGSRDIRGLKLKAIRDLREIARSRDFRFCIAHRFKPIWIASLATRLPIVGVHHAFGDYQRLSRKVFAGLMSKRLSLLAVSDAVRDDIRRCLPKWPAERIETLYNRIDVAALQAEQVERLSARRQLRLPDEAWVVGNVGRLHPDKDQATLLRGFAAALPRLPQNSLLAILGSGRLEEQLKDLACELGIGERVLFLGQVEEARRYFKAFDAFALSSDHEPFGMVLLEAMVAGVPLIATACGGAREVVEGVGILFPLGDETALAEGLTHLAALDRRQREACARLMLERLETRFSDAAVRREFWRLPTIAGFASESAC | soluble
8 | MGSDKIHHHHHHAQLSDNGYANVDWQFNAPLKNHFADKASGWGMNFEGGYFVTPNLGLGLFMNYSSNHEYFPRATFPVGEGTVNTDQQHTIFQLPFGAAARYQMNRGGAWQPYFGVKLGANYAKVRSNYNMFETRDNTWGFYVSPEIGLNVYPWAYGPGLHIAVYYSYATNKANVLTYNVDKLNNFGFRVGLAF | not soluble
9 | MAEVPHHNIPAVDMLNATSRLQLEAQELRNNKPNWGSYFRSQMIQEDDYNFITSFENAKSKEERDQVLAANNANGQAAKTMANLITQVAKDQNVRYVLTLFDDMLQEDKSRVELFHSAAARQKRTVWSQYLGILQRQDNFIVNQMSSIIAKLACFGTTRMEGQDLQYYFSFLKEQLKNSTTNDYMNTTARCLQMMLRHDEYRHEFVDSDGVQTLVTALNGKTNFQLQYQLIFAVWCLTFNADIARKAPSLGLIQALGDILSESTKEKVIRIILASFVNILSKVDEREVKREAALQMVQCKTLKTLELMDAKKYDDPDLEDDVKFLTEELTLSVHDLSSYDEYYSEVRSGRLQWSPVHKSEKFWRENASKFNDKQFEVVKILIKLLESSHDPLILCVASHDIGEYVRHYPRGKTVVEQYQGKAAVMRLLTAEDPNVRYHALLAVQKLMVHNWEYLGKQLDSDVQTDTVAVK | not soluble
10 | GMKTLCTHSLPKEKMPYLLRSGEGERYLFGRQVATVMANGRSTGDLFEIVLLSGGKGDAFPLHVHKDTHEGILVLDGKLELTLDGERYLLISGDYANIPAGTPHSYRMQSHRTRLVSYTMKGNVAHLYSVIGNPYDHAEHPPYASEEVSNERFAEAAAVADIVFLDEAKPACSAKLAELTELPDGAVPYVLESGEGDRLLTGDQLHRIVAAQKNTDGQFIVVSSEGPKGDRIVDHYHEYHTETFYCLEGQMTMWTDGQEIQLNPGDFLHVPANTVHSYRLDSHYTKMVGVLVPGLFEPFFRTLGDPYEGHIFPCEPQALRFDRILQNIEALDLKVMKP | soluble
11 | MTIEKEIEGLIHKTNKDLLNENANKDSRVFPTQRDLMAGIVSKHIAKNMVPSFIMKAHESGIIHVHDIDYSPALPFTNCCLVDLKGMLENGFKLGNAQIETPKSIGVATAIMAQITAQVASHQYGGTTFANVDKVLSPYVKRTYAKHIEDAEKWQIADALNYAQSKTEKDVYDAFQAYEYEVNTLFSSNGQTPFVTITFGTGTDWTERMIQKAILKNRIKGLGRDGITPIFPKLVMFVEEGVNLYKDDPNYDIKQLALECASKRMYPDIISAKNNKAITGSSVPVSPMGCRSFLSVWKDSTGNEILDGRNNLGVVTLNLPRIALDSYIGTQFNEQKFVELFNERMDLCFEALMCRISSLKGVKATVAPILYQEGAFGVRLKPDDDIIELFKNGRSSVSLGYIGIHELNILVGRDIGREILTKMNAHLKQWTERTGFAFSLYSTPAENLCYRFCKLDTEKYGSVKDVTDKGWYTNSFHVSVEENITPFEKISREAPYHFIATGGHISYVELPDMKNNLKGLEAVWDYAAQHLDYFGVNMPVDKCFTCGSTHEMTPTENGFVCSICGETDPKKMNTIRRTCAYLGNPNERGFNLGKNKEIMHRVKHQ | soluble
12 | MKRLSFLTLRPRHLSFLTLQRRNALRDALRHRSAPRRAFRIGRRASRTACDAERRTIVRLSFRALQPRRLSLLTLQRRNALRDALRHRSAPRRVFRIGRRASRTACDAQRCTIVRLSFRALQPRRLSFLTLQRRSALRDALHHKSAPRCTFKIGRGASRTACDAERRTIVRLSFRALQPRRLSFLTLQRRNALGDALRHKSAPRCTFKIGREASRTACDAERRTIVRLSFRALQPRRLSFLTLQRRNALRDALRHKSAPRRAFRIGRRASRTACDAERRTIVSQISLNALEHHHHHH | not soluble
13 | MNCRLGCGACCIAPSISSVIPGMPNGKAAGERCVQLSDDNLCLIFGSPERPAVCCDFEASLDVCGHSNEEALWLITNLESQTS | soluble
14 | MSLTQYWLGLDCGGSWLKAGLYDREGREAGVQRLPLCALSPQPGWAERDMAELWQCCMAVIRALLTHSGVSGEQIVGIGISAQGKGLFLLDKNDKPLGNAILSSDRRAMEIVRRWQEDGIPEKLYPLTRQTLWTGHPVSLLRWLKEHEPERYAQIGCVMMTHDYLRWCLTGVKGCEESNISESNLYNMSLGEYDPCLTDWLGIAEINHALPPVVGSAEICGEITAQTAALTGLKAGTPVVGGLFDVVSTALCAGIEDEFTLNAVMGTWAVTSGITRGLRDGEAHPYVYGRYVNDGEFIVHEASPTSSGNLEWFTAQWGEISFDEINQAVASLPKAGGDLFFLPFLYGSNAGLEMTSGFYGMQAIHTRAHLLQAIYEGVVFSHMTHLNRMRERFTDVHTLRVTGGPAHSDVWMQMLADVSGLRIELPQVEETGCFGAALAARVGTGVYHNFSEAQRDLRHPVRTLLPDMTAHQLYQKKYQRYQHLIAALQGFHARIKEHTLEGHHHHHH | soluble
15 | MFTGIIEETGTIESMKKAGHAMALTIKCSKILEDVHLGDSIAVNGICLTVTDFTKNQFTVDVMPETVKATSLNDLTKGSKVNLERAMAANGRFGGHFVSGHVDGTAEITRIEEKSNAVYYDLKMDPSLTKTLVLKGSITVDGVSLTIFGLTEDTVTISLIPHTISETIFSEKTIGSKVNIECDMIGKYMYRFLHKANENKTQQTITKAFLSENGF | soluble
16 | MMHISVGATEMSWLSSLKSVFSPSQEVKEDDVQTILQSYSLENSSFVLKDRITQINVEGRILQLTIKTFPEEADHLQQIHDELADALQKAGIQELNLHVIQQKTAPRTEPKSSSSTTSSSSHLPPVVDASASPTPDPNNPPIQKKAPIQSEVPAHPRIKNVILVSSGKGGVGKSTTTVNLALALQKQGLKVGVLDADIYGPSIPTMLGNAGRTPKIENENFVPLDAYGLAVLSIGHLTGDNNTPVAWRGPKATGALMQLFNQTLWPDLDVLVIDMPPGTGDIQLTLAQRIPVTGALIVTTPQNVALLDASKGIELFNRVGIPVVGVIENMSTHICSNCGFEEQIFGVGGGDKLSEQYDIPLLGRLPLNAQIRENADKGQPSVIAQDTAAESYQMIAQALWTRVEQLPQRARDDKRIFLEHHHHHH | not soluble
17 | MGSDKIHHHHHHMRTPTCDITTHERWFGAFTAPYLEEGPEHVGPVRLKIEHTHHVLSNARSIVDSEDFSPLVQRAALLAALYHDTGRFPQYRRWRTFSDPRSVNHALLGGRTLREAGALDDEPVEVRRLVLGAVVMHNRFRVPSGIPDDARTVTDVVRDADKLDIFRVMAPHLAPGAERDKVVVLHVEDAPGKWSPVIVADVLAGRVASYADLRYVNDFRLLLGTWVRDLRFPASRRMLAASGLVENILSALPASDDIARARTRILSDLADAARGRGGA | not soluble
18 | MNSSLKNLLNNKILVLDGAMGTCIQSFNLDEGDFKGSLSCTCHSNQKGNNDVLNLTKPEIIKEIHKRYLEAGADIIETNTFNATEISQKDYNMQDKIYDINFKGAKLAKEACTYYTKLNPNKPRFAAGSIGPTNRTASLSPDVENPGFRNVTFDELCNAYKHQIEALIDGGVDLLLIETIFDTLNARAAIFAAETVFENKKIKLPIIISGTIADKSGRILSGQTLDAFAESLKNENIIAIGLNCSFGAEELIPFIKRLSETQNRYISFHPNAGLPNSLGEYEELPEETASIVKKLALEGHLNIVGGCCGTTPEHIRAISSVVKGISPRKVPNLEPKTIYSGLENIKIDKNSNFINIG | not soluble
19 | GPQDPDKRRKTLVIIEKTYSLLLDVEDYERRYLLSLEEERPALMDDRKHKICSMYDNLRGKLPGQERPSDDHFVQIMCIRKGKRMVARILPFLSTEQAADILMTTARNLPFLIKKDAQDEVLPCLLSPFSLLLYHLPSVSITSLLRQLMNLPQSAATPALSNPHLTAVLQNKFGLSLLLILLSRGEDLQSSDPATESTQNNQWTEVMFMATRELLRIPQAALAKPISIPTNLVSLFSRYVDRQKLNLLETKLQLVQ | soluble
20 | MAHHHHHHMMSTYMTRYDYDYNRDPSLTGSDGGSGGGFEQEISGEVRNRPIFAYGVDTGDRDDRTIYQVDYTHKDRSVKNMAGLAATLKGSAASAAAARMRGQDNGTAYQHNWYLPAASAHVVLVDGSHPHTVYQDDYQAPRHVAGGAVHDPVCYAGAAAAAYNADLLKPHGVMEDDGADLAPKITSKESLLPRKHASPNATWTPVFENTADHRHTWNDCVPGDGVVGTYVCTSWDYGDTSQAHPLQLPLSLARSLAAHNLDASANPDKAALLRHLAGKNYSSRTLRGSSSGAPLDTNDRTNPQFLSTVEQKRCAVSRRLEKEHYVTMSIYKSDFIDQGLLPELPGNPGGPADVRDTHTSPLATAGEMMAGQLTTATRELGLLRNAHGTLKSGEAHAASRVSTGVLSAMRAMEKAASIDKADPHCHKLCE | not soluble
